{"source": "patent US5969101", "key": {"[1]": {"target": "c-Abl wild type, full length"}}, "data": [{"substance": "HA-tagged Abi-2Δ1-100 (pCGN/abi-2Δ1-100)", "values": [{"measurement": "relative transforming activity, colonies in soft agar of Rat1/P185 BCR-Abl cells", "setting": "P185 BCR-Abl", "value": 70, "unit": "%"}]}, {"substance": "HA-tagged Abi-2Δ1-157 (pCGN/abi-2Δ1-157)", "values": [{"measurement": "No. of Agar Colonies (per 10^4 cells) (agar colonies per 10^4 cells)", "setting": "[1]", "value": 563}, {"measurement": "No. of Agar Colonies (per 10^4 cells) (agar colonies per 10^4 cells)", "setting": "c-Abl K290R", "value": 3}]}]}
